In patent US20170258870A1 (NORTHWESTERN UNIVERSITY, published 2017):
The star is where a group is joined. Biotin = O=C1N[C@H]2[C@H](CS[C@H]2CCCCC(=O)*)N1; Ttds = NCCCOCCOCCOCCCNC(=O)CCC(=O)*

Columns and labels:
[1] = target: bovine serum albumin (BSA) (bovine, UniProt P02769 25-607); test: pulldown with biotinylated peptide on streptavidin beads, neutral pH, coomassie
Method: (§1) The total incubation volume was 250 μl (50 mM NaPhosphate buffer, 150 mM NaCl, pH7). ‘High Capacity Streptavidin Beads’ (Thermo Fisher Scientific, Waltham, USA) were blocked with 1% BSA solution and equilibrated with the NaPhosphate buffer. For each pulldown 50 μl of beads were utilized and incubated with 200 μl enzyme/peptide mixture for 30 min. at room temperature. The remaining 50 μl of the enzyme/peptide samples were prepared for SDS-PAGE (INPUT fraction). After incubation of the beads with the enzyme/peptide mixture the samples were centrifuged for 1 min. at 1,500×g at 4° C. The supernatant was removed and stored at 4° C. (UNBOUND fraction). Subsequently, the beads were washed three times with NaPhosphate buffer followed by centrifugation at 4,000 rpm at room temperature. […] After destaining the gels were scanned.

[2] = target: T1, recombinant human α-mannosidase (LAMAN) (human, UniProt O00754 50-1011, limits assumed); test: as above
T1 sequence (looked up): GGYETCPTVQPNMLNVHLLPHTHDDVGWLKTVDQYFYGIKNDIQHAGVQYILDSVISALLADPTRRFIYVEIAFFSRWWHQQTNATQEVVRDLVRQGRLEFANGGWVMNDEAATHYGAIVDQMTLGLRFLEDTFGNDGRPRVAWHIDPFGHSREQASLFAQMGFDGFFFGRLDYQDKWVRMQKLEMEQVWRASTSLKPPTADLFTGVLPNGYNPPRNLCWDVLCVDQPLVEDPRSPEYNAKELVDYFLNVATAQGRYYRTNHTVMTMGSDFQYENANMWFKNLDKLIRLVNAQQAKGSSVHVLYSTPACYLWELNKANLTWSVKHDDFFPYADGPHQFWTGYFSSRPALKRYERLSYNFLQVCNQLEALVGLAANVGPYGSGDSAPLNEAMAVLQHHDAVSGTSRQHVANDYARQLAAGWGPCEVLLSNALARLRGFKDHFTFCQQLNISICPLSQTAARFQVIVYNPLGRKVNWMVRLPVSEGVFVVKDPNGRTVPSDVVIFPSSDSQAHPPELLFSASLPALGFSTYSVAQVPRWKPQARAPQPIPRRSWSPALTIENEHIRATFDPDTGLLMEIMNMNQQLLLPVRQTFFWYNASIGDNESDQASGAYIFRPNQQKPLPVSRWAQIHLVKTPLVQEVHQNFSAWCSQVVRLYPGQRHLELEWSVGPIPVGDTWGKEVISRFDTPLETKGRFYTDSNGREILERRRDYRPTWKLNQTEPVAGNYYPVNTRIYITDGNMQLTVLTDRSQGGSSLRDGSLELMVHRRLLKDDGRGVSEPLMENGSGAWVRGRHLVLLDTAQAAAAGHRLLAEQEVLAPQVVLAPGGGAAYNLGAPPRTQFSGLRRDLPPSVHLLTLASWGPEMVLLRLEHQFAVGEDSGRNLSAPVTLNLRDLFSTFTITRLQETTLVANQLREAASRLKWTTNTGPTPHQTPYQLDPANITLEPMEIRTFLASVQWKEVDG
Method: as §1

bovine serum albumin (BSA), sequence (P02769 25-607 limits assumed): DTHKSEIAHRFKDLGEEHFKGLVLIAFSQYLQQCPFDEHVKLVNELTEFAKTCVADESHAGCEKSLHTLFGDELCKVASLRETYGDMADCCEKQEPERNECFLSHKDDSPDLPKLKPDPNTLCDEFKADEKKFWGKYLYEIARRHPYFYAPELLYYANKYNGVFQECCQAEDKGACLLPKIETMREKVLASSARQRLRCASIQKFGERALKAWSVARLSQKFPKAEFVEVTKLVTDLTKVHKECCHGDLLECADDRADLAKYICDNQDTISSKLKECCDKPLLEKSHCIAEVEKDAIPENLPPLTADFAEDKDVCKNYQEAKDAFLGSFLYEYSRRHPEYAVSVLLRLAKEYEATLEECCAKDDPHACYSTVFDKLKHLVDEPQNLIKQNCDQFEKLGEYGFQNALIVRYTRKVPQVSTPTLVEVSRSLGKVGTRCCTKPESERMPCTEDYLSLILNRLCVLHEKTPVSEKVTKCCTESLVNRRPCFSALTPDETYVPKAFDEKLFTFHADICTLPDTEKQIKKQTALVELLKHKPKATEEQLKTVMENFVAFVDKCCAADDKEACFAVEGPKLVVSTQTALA

- binding result [1]: no binding
- binding result [2]: no binding
B1: Helix 5 peptide (LIMP-2-derived, L152-E175) (peptide)
peptide: {Biotin-Ttds}-LREIIEAMLKAYQQKLFVTHTVDE-OH
notes: Synthetic peptide from jpt Peptide Technologies; also called wild-type helix 5 peptide; LIMP-2-derived helix 5 peptide
